24 molecules from patent US20260193293A1, “PEPTIDES CAPABLE OF INHIBITING PROTEIN-PROTEIN INTERACTIONS AT GABAB1A SUBUNIT AND USES THEREOF” (UNIVERSITY OF COPENHAGEN, priority 2022, published 2026) can be followed below.

Non-standard residues stand in square brackets, D forms with d. Cya = N[C@@H](CS(=O)(=O)O)C(=O)O; NMeE = CN[C@@H](CCC(=O)O)C(=O)O; NMeD = CN[C@@H](CC(=O)O)C(=O)O; NMeS = CN[C@@H](CO)C(=O)O

As usually defined, the Ki is the dissociation constant of the complex between target and ligand, obtained from inhibition or displacement.

The labels stand for the following.
B1: EDDS(N-Me-D)… (peptide)
peptide: Ac-EDDS[NMeD]VWWGGADTD-NH2
SMILES: CC(=O)N[C@@H](CCC(=O)O)C(=O)N[C@@H](CC(=O)O)C(=O)N[C@@H](CC(=O)O)C(=O)N[C@@H](CO)C(=O)N(C)[C@@H](CC(=O)O)C(=O)N[C@H](C(=O)N[C@@H](Cc1c[nH]c2ccccc12)C(=O)N[C@@H](Cc1c[nH]c2ccccc12)C(=O)NCC(=O)NCC(=O)N[C@@H](C)C(=O)N[C@@H](CC(=O)O)C(=O)N[C@H](C(=O)N[C@@H](CC(=O)O)C(N)=O)[C@@H](C)O)C(C)C
B2: E(N-Me-D)… (peptide)
peptide: Ac-E[NMeD]DSDVWWGGADTD-NH2
SMILES: CC(=O)N[C@@H](CCC(=O)O)C(=O)N(C)[C@@H](CC(=O)O)C(=O)N[C@@H](CC(=O)O)C(=O)N[C@@H](CO)C(=O)N[C@@H](CC(=O)O)C(=O)N[C@H](C(=O)N[C@@H](Cc1c[nH]c2ccccc12)C(=O)N[C@@H](Cc1c[nH]c2ccccc12)C(=O)NCC(=O)NCC(=O)N[C@@H](C)C(=O)N[C@@H](CC(=O)O)C(=O)N[C@H](C(=O)N[C@@H](CC(=O)O)C(N)=O)[C@@H](C)O)C(C)C
B3: (N-Me-E)… (peptide)
peptide: Ac-[NMeE]DDSDVWWGGADTD-NH2
SMILES: CC(=O)N(C)[C@@H](CCC(=O)O)C(=O)N[C@@H](CC(=O)O)C(=O)N[C@@H](CC(=O)O)C(=O)N[C@@H](CO)C(=O)N[C@@H](CC(=O)O)C(=O)N[C@H](C(=O)N[C@@H](Cc1c[nH]c2ccccc12)C(=O)N[C@@H](Cc1c[nH]c2ccccc12)C(=O)NCC(=O)NCC(=O)N[C@@H](C)C(=O)N[C@@H](CC(=O)O)C(=O)N[C@H](C(=O)N[C@@H](CC(=O)O)C(N)=O)[C@@H](C)O)C(C)C
B4: e… (peptide)
peptide: Ac-[dE]DDSDVWWGGADTD-NH2
SMILES: CC(=O)N[C@H](CCC(=O)O)C(=O)N[C@@H](CC(=O)O)C(=O)N[C@@H](CC(=O)O)C(=O)N[C@@H](CO)C(=O)N[C@@H](CC(=O)O)C(=O)N[C@H](C(=O)N[C@@H](Cc1c[nH]c2ccccc12)C(=O)N[C@@H](Cc1c[nH]c2ccccc12)C(=O)NCC(=O)NCC(=O)N[C@@H](C)C(=O)N[C@@H](CC(=O)O)C(=O)N[C@H](C(=O)N[C@@H](CC(=O)O)C(N)=O)[C@@H](C)O)C(C)C
B5: Ac-ETEFI(Cya)WGPTGDED-NH2 (AJAP-1WT mutant Ala182Cya) (peptide)
peptide: Ac-ETEFI[Cya]WGPTGDED-NH2
SMILES: CC[C@H](C)[C@H](NC(=O)[C@H](Cc1ccccc1)NC(=O)[C@H](CCC(=O)O)NC(=O)[C@@H](NC(=O)[C@H](CCC(=O)O)NC(C)=O)[C@@H](C)O)C(=O)N[C@@H](CS(=O)(=O)O)C(=O)N[C@@H](Cc1c[nH]c2ccccc12)C(=O)NCC(=O)N1CCC[C@H]1C(=O)N[C@H](C(=O)NCC(=O)N[C@@H](CC(=O)O)C(=O)N[C@@H](CCC(=O)O)C(=O)N[C@@H](CC(=O)O)C(N)=O)[C@@H](C)O
B6: EDD(N-Me-S)… (peptide)
peptide: Ac-EDD[NMeS]DVWWGGADTD-NH2
SMILES: CC(=O)N[C@@H](CCC(=O)O)C(=O)N[C@@H](CC(=O)O)C(=O)N[C@@H](CC(=O)O)C(=O)N(C)[C@@H](CO)C(=O)N[C@@H](CC(=O)O)C(=O)N[C@H](C(=O)N[C@@H](Cc1c[nH]c2ccccc12)C(=O)N[C@@H](Cc1c[nH]c2ccccc12)C(=O)NCC(=O)NCC(=O)N[C@@H](C)C(=O)N[C@@H](CC(=O)O)C(=O)N[C@H](C(=O)N[C@@H](CC(=O)O)C(N)=O)[C@@H](C)O)C(C)C
B7: ED(N-Me-D)… (peptide)
peptide: Ac-ED[NMeD]SDVWWGGADTD-NH2
SMILES: CC(=O)N[C@@H](CCC(=O)O)C(=O)N[C@@H](CC(=O)O)C(=O)N(C)[C@@H](CC(=O)O)C(=O)N[C@@H](CO)C(=O)N[C@@H](CC(=O)O)C(=O)N[C@H](C(=O)N[C@@H](Cc1c[nH]c2ccccc12)C(=O)N[C@@H](Cc1c[nH]c2ccccc12)C(=O)NCC(=O)NCC(=O)N[C@@H](C)C(=O)N[C@@H](CC(=O)O)C(=O)N[C@H](C(=O)N[C@@H](CC(=O)O)C(N)=O)[C@@H](C)O)C(C)C

Chain of Sushi domains (SD1/2) protein of the GABAB1a (GB1a) subunit, recombinant (Q9Z0U4 29-158): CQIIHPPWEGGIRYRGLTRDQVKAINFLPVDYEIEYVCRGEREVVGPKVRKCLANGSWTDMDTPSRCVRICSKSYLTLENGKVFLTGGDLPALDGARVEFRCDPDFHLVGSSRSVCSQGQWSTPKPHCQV

The test addresses Sushi domains (SD1/2) protein of the GABAB1a (GB1a) subunit, recombinant. The test can be described thus: FP competition.
As to Ac-EDD[dS]DVWWGGADTD-NH2 [EDDs…], the Ki is 752 nM.

As to Ac-EDDSDVWWGGADAD-NH2, the Ki came out at 480 nM.

Turning to Ac-EDDSDVWWGAADTD-NH2, the Ki was 731 nM.

On to B1, for which the Ki was found to be 3760 nM.

Regarding Ac-EDDSDVWWGGAD[dT]D-NH2 […tD], the Ki is 469 nM.

With B2, the Ki was 655 nM.

Turning to Ac-EDDSDVWWGGADT[dD]-NH2 […d], the Ki was found to be 529 nM.

On to Ac-EDDSDVWW[dA]GADTD-NH2 [EDDSDVWWaGADTD], for which the Ki came to 8700 nM.

For B3, the Ki came to 670 nM.

For Ac-E[dD]DSDVWWGGADTD-NH2 [Ed…], the Ki is 567 nM.

Ac-EDDSDVWWAGADTD-NH2: the Ki stood at 485 nM.

As for Ac-EDDSDVWWG[dA]ADTD-NH2 […aADTD], the Ki is 1210 nM.

Turning to Ac-EDDSDVWWGGAATD-NH2, the inhibition constant (Ki) was determined as 653 nM.

Turning to B4, the Ki was found to be 483 nM.

Take B5: the Ki is 11.8 nM.

B6: the Ki is 1670 nM.

For the molecule B7, the Ki was determined as 671 nM.

Ac-EDDSDVWWGGADTA-NH2: the Ki amounted to 786 nM.

On to Ac-EDDSDVAWGGADTD-NH2, for which the Ki was 8790 nM.

Take Ac-EDDS[dD]VWWGGADTD-NH2 [EDDSd…]: the Ki was found to be 1630 nM.

For Ac-ETEFIDWGPTGDED-NH2 [peptide 26 (Ac-…-NH2, AJAP-1WT mutant A182D)], the fold improved affinity relative to the wild type (AJAP-1WT) was 3 fold.

For the molecule Ac-ED[dD]SDVWWGGADTD-NH2 [EDd…], the Ki worked out at 736 nM.

Ac-EDDSDVWWGG[dA]DTD-NH2 […aDTD]: the Ki was determined as 755 nM.

Regarding Ac-EDDSDVWWGGA[dD]TD-NH2 […dTD], the Ki is 637 nM.
